# In IntAct's records for PubMed 30323948:
# B1: Subversion of eukaryotic traffic protein A (Legionella pneumophila subsp. pneumophila), Q5ZU30 (parent)
# chain: MYKIYSYLGWRIDMKTENLPQAGQEAQIDKKIHFIWVGHIMPQKNIQVVSEWAEKNPGYETIIWVDKKIAPAKELDLFILDMKSKGITVKDINEEGVCRDSIRHELDQESPNYGMVSDMLRLNILAAEGGIYLDSDILCSAPFPDEIYAPFGFLLSPWSQGANNTLCNDIILCSKGNQIIQQLADAIEQSYIARDSFEFTHEYASMKETKGERIAKTLGVTGPGFLFHQLKKMGILNDKSEMEAIHWELQDQRYLIDGSVKEPDYFYVPQNNTNDASWVPSIKRPGIENMSFQERLENAVQLIAFDIQKTGLFNLDHYANELKVKQNSWCIAAETSPELKPDSYLLIRPRDKTGEWTLYYVDEDKKLNPVTLPVIKGAIKLSEVSDPLRKFHTLLSQVSDPVNPTAHELKQIGRALIELKPRQDEWHCKNKWSGAEEIAQELWQRITSNETLRAQIKQCFTQFESLKPRVAELGLTRASGAGTEVEAHESTVKEQEIISQNTVGEEGTKEKNSVQLASENSSDEKIKTAHDLIDEIIQDVIQLDGKLGLLGGNTRQLEDGRVINIPNGAAMIFDDYKKYKQGELTAESALESMIKIAKLSNQLNRHTFFNQRQPETGQFYKKVAAIDLQTTIAAEYDNNHGLRI
# Variants of: B1
# Conditions: with rab1a_human RAB1A
row,Variant,effect of a mutation on the interaction
1,D134A;D136A,disrupting interaction

# Variants of: B1
# Conditions: with rab7a_human RAB7A
row,Variant,effect of a mutation on the interaction
1,D134A;D136A,disrupting interaction
